Our source for the Kd values is US8618101B2, “N-((1R,2S,5R)-5-(tert-butylamino)-2-((S)-3-(7-tert-butylpyrazolo[1,5-a][1,3,5]triazin-4-ylamino)-2-oxopyrrolidin-1-yl)cyclohexyl)acetamide, a dual modulator of chemokine receptor activity, crystalline forms and processes” (Bristol-Myers Squibb Company, priority 2009, dated 2013).

In this experiment the target is CCR-2 (Homo sapiens, UniProt P41597). Nature of the experiment: Cold competition ligand binding to hCCR-2 using 125I-human MCP-1. The settings on record: 125I-human MCP-1, n=8.
Chain of CCR-2 (P41597 whole entry): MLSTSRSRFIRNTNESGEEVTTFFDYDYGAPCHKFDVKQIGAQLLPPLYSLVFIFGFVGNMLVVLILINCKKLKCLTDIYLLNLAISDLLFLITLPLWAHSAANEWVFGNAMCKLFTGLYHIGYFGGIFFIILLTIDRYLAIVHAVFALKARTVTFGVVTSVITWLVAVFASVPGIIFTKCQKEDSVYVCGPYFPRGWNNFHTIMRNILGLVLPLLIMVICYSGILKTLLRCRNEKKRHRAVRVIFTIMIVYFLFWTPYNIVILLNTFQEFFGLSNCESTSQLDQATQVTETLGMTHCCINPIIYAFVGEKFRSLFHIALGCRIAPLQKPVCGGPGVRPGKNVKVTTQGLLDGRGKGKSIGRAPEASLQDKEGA

By Kd is commonly meant the equilibrium constant for the complex coming apart. The low end stands for tighter binding, the high end for weaker binding. Take “mouse MCP-1: mouse chemokine MCP-1, major ligand of CCR-2”: the Kd was determined as 0.91 nM.
